Patent publication US20260209301A1 (LIFEARC, published 2026)
No end group written: not given here.

T1: human GalR1 (human, UniProt P47211 1-349)
T1 sequence (looked up): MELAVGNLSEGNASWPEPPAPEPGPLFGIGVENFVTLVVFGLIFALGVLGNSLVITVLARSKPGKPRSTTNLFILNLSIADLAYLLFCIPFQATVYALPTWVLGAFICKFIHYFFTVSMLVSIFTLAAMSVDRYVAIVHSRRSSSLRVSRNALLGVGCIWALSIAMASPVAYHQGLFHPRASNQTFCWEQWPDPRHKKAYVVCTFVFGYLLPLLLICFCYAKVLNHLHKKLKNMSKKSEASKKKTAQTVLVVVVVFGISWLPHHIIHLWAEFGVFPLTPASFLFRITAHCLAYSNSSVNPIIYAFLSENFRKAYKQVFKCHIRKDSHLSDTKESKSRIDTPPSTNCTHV

T2: human GalR2 (human, UniProt O43603 1-387)
T2 sequence (looked up): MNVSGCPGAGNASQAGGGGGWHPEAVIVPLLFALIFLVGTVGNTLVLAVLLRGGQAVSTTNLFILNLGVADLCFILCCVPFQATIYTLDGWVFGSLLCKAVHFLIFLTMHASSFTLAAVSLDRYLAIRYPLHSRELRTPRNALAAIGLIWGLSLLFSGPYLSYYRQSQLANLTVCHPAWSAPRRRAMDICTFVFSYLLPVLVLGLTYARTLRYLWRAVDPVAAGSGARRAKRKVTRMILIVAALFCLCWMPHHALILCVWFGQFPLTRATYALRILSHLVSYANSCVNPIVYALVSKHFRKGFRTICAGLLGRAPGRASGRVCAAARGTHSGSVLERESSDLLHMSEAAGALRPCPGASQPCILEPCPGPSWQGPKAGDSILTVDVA

T3: cynomolgus GalR2 (Macaca fascicularis, UniProt A0A2K5WWW1 1-386)
T3 sequence: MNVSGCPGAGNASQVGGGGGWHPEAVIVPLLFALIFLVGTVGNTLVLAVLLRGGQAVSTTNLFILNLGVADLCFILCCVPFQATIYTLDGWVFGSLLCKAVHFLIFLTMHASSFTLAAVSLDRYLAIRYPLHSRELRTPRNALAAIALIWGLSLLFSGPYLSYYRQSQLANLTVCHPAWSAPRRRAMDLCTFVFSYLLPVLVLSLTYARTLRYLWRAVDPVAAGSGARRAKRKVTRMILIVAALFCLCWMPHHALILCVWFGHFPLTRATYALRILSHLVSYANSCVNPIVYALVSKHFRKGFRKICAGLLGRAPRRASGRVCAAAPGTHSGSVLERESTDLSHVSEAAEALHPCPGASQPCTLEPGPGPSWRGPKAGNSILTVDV

T4: rat GalR2 (Rattus rattus, UniProt O08726 1-372)
T4 sequence (looked up): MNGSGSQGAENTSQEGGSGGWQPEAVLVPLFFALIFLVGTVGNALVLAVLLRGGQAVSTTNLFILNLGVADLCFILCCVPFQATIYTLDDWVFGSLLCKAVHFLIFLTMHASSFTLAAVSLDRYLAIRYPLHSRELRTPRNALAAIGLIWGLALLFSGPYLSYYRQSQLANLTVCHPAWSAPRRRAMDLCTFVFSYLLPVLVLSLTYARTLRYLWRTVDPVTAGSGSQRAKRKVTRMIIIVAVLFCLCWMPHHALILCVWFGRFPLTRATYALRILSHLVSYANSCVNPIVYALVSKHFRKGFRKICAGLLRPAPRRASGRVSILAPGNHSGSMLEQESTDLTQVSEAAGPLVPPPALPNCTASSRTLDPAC

T5: mouse GalR2 (Mus musculus, UniProt O88854 1-371)
T5 sequence (looked up): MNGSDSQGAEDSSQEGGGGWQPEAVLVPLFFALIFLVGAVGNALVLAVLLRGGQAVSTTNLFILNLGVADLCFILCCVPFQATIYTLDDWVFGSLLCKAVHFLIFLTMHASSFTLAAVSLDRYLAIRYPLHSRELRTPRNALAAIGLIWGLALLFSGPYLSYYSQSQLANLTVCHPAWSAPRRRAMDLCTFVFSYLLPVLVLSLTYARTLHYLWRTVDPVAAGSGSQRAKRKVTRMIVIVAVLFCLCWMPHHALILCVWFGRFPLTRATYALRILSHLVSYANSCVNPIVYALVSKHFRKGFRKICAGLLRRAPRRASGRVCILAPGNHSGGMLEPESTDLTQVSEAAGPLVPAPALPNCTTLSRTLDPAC


Tests used:
Assay in all cases: cell-based or functional assay
[1] = target: T1, human GalR1
[2] = target: T2, human GalR2
[3] = target: T3, cynomolgus GalR2
[4] = target: T4, rat GalR2
[5] = target: T5, mouse GalR2

| Beta Arrestin IA (%) [1] | cAMP IA (%) [1] | cAMP pEC50 [1] | Beta Arrestin pEC50 [2] | Calcium pEC50 [2] | calcium assay activity (quantity not given) [3] | calcium assay activity (quantity not given) [4] | calcium assay activity (quantity not given) [5] | Beta Arrestin pEC50 [1] | Binder |
| --- | --- | --- | --- | --- | --- | --- | --- | --- | --- |
| 24.5% | 86.7% | 6.8 pEC50 | 7.9 pEC50 | 8.9 pEC50 | – | – | – | – | RGRGNWTLNSAGYLLGPVLPPPALALA [M1145] |
| – | – | – | – | – | 9.6 | 8.8 | 9 | – | GWTLNSAGYLLGPHAVGNHRSFSDKNGLTS [Galanin 1-30 (human)] |
| 7% | 66% | 6.5 pEC50 | 5.8 pEC50 | 6.9 pEC50 | – | – | – | – | WTLNSAGYLLGPKKKKK (also: PEG (dPEG24) on one lysine, site not given here) [Nax409-9] |

More lines, now with the values behind:

| Binder | Beta Arrestin IA (%) [1] | cAMP IA (%) [1] | cAMP pEC50 [1] | Beta Arrestin pEC50 [2] | Calcium pEC50 [2] | calcium assay activity (quantity not given) [3] | calcium assay activity (quantity not given) [4] | calcium assay activity (quantity not given) [5] | Beta Arrestin pEC50 [1] |
| --- | --- | --- | --- | --- | --- | --- | --- | --- | --- |
| WTLNSAGYLL [Galanin 2-11] | – | – | – | 6.4 pEC50 | 7.6 pEC50 | – | – | – | – |
| WTLNSAGYLLGPHAIDNHRSFHDKYGLA [Galanin 2-29 (rat)] | 67.2% | 90.8% | 8.6 pEC50 | 8.1 pEC50 | 9.2 pEC50 | – | – | – | 8.09 pEC50 |
| GWTLNSAGYLLGPHA [Galanin 1-15] | – | – | – | 7.2 pEC50 | 8.6 pEC50 | – | – | – | – |
| GWTLNSAGYLLGPQPPGFSPFR [M617] | 99% | 90.1% | 10 pEC50 | 8.4 pEC50 | 9.6 pEC50 | – | – | – | 8.68 pEC50 |
